Data reported in publication PMC3752698.

Target: complement component C1q
Experiment: SPR

B1: soluble SCARF1 protein (receptor)
chain: SELDPKGQHVCVASSPSAELQCCAGWRQKDQECTIPICEGPDACQKDEVCVKPGLCRCKPGFFGAHCSSRCPGQYWGPDCRESCPCHPHGQCEPATGACQCQADRWGARCEFPCACGPHGRCDPATGVCHCEPGWWSSTCRRPCQCNTAAARCEQATGACVCKPGWWGRRCSFRCNCHGSPCEQDSGRCACRPGWWGPECQQQCECVRGRCSAASGECTCPPGFRGARCELPCPAGSHGVQCAHSCGRCKHNEPCSPDTGSCESCEPGWNGTQCQQPCLPGTFGESCEQQCPHCRHGEACEPDTGHCQRCDPGWLGPRCEDPCPTGTFGEDCGSTCPTCVQGSCDTVTGDCVCSAGYWGPSCNASCPAGFHGNNCSVPCECPEGLCHPVSGSCQPGSGSRDT
- Kd: 124 nM
